# Measured values published in the Human Domainome abundance scans (Beltran et al. 2025).
# ± gives the uncertainty stated by the source.
# Test: abundance fitness (aPCA) (normalised: wild type 0, dead -1); higher = more abundant; growth selection in yeast, the domain comes from the species named
# Settings: Homo sapiens
row,Substance,abundance fitness
1,"Transcriptional activator Myb K144E, P10242",-0.114 ± 0.14
2,"Transcriptional activator Myb L172N, P10242",-0.34 ± 0.14
3,"Transcriptional activator Myb E150W, P10242",-0.208 ± 0.083
4,"Transcriptional activator Myb I181G, P10242",-1.01 ± 0.07
5,"Transcriptional activator Myb T188V, P10242",-0.012 ± 0.044
6,"Transcriptional activator Myb Y198C, P10242",-0.16 ± 0.14
7,"Transcriptional activator Myb G163T, P10242",-0.595 ± 0.11
8,"Transcriptional activator Myb S146K, P10242",-0.344 ± 0.34
9,"Transcriptional activator Myb S203T, P10242",0.006 ± 0.1
10,"Transcriptional activator Myb N186C, P10242",-0.028 ± 0.089
11,"Transcriptional activator Myb K192G, P10242",-0.219 ± 0.053
12,"Transcriptional activator Myb A167W, P10242",-0.27 ± 0.063
13,"Transcriptional activator Myb E196L, P10242",-0.03 ± 0.072
14,"Transcriptional activator Myb I169H, P10242",-0.799 ± 0.22
15,"Transcriptional activator Myb S187G, P10242",-0.023 ± 0.049
16,"Transcriptional activator Myb S187H, P10242",-0.011 ± 0.17
17,"Transcriptional activator Myb A180M, P10242",-0.058 ± 0.16
18,"Transcriptional activator Myb S202F, P10242",-0.045 ± 0.093
19,"Transcriptional activator Myb V193C, P10242",-0.138 ± 0.15
20,"Transcriptional activator Myb A180N, P10242",-0.134 ± 0.33
21,"Transcriptional activator Myb W147N, P10242",-0.65 ± 0.042
22,"Transcriptional activator Myb W166N, P10242",-0.349 ± 0.2

row,Substance,abundance fitness
1,"Transcriptional activator Myb K204F, P10242",-0.097 ± 0.19
2,"Transcriptional activator Myb W166K, P10242",-0.786 ± 0.2
3,"Transcriptional activator Myb K143E, P10242",-0.144 ± 0.17
4,"Transcriptional activator Myb E196C, P10242",-0.13 ± 0.089
5,"Transcriptional activator Myb R191V, P10242",0.017 ± 0.094
6,"Transcriptional activator Myb G197F, P10242",-0.148 ± 0.39
7,"Transcriptional activator Myb K171F, P10242",-0.638 ± 0.22
8,"Transcriptional activator Myb Y198R, P10242",0.054 ± 0.063
9,"Transcriptional activator Myb E149S, P10242",-0.188 ± 0.4
10,"Transcriptional activator Myb G197P, P10242",-0.13 ± 0.1
11,"Transcriptional activator Myb L199Q, P10242",-0.152 ± 0.12
12,"Transcriptional activator Myb W185G, P10242",-0.702 ± 0.046
13,"Transcriptional activator Myb W185C, P10242",-0.755 ± 0.12
14,"Transcriptional activator Myb D152M, P10242",-0.381 ± 0.15
15,"Transcriptional activator Myb R191W, P10242",-0.017 ± 0.088
16,"Transcriptional activator Myb T188Y, P10242",0.034 ± 0.13
17,"Transcriptional activator Myb K171A, P10242",-0.017 ± 0.093
18,"Transcriptional activator Myb P174F, P10242",-0.298 ± 0.17
19,"Transcriptional activator Myb I154N, P10242",-1.14 ± 0.3
20,"Transcriptional activator Myb N186F, P10242",-0.055 ± 0.13
21,"Transcriptional activator Myb A180G, P10242",-0.244 ± 0.049
22,"Transcriptional activator Myb I155M, P10242",-0.178 ± 0.12

row,Substance,abundance fitness
1,"Transcriptional activator Myb I155D, P10242",-0.779 ± 0.15
2,"Transcriptional activator Myb G175R, P10242",-0.281 ± 0.053
3,"Transcriptional activator Myb M189A, P10242",-0.343 ± 0.068
4,"Transcriptional activator Myb S187A, P10242",-0.075 ± 0.093
5,"Transcriptional activator Myb N183L, P10242",-0.074 ± 0.084
6,"Transcriptional activator Myb G163Y, P10242",-0.577 ± 0.46
7,"Transcriptional activator Myb N186G, P10242",-0.162 ± 0.055
8,"Transcriptional activator Myb A170C, P10242",-0.137 ± 0.13
9,"Transcriptional activator Myb K204C, P10242",-0.317 ± 0.12
10,"Transcriptional activator Myb W147S, P10242",-0.63 ± 0.036
11,"Transcriptional activator Myb D152Q, P10242",-0.065 ± 0.12
12,"Transcriptional activator Myb Y156C, P10242",-0.069 ± 0.076
13,"Transcriptional activator Myb R176S, P10242",-0.457 ± 0.072
14,"Transcriptional activator Myb K204R, P10242",0.066 ± 0.12
15,"Transcriptional activator Myb W185T, P10242",-0.705 ± 0.12
16,"Transcriptional activator Myb I154G, P10242",-0.777 ± 0.057
17,"Transcriptional activator Myb E149R, P10242",-0.203 ± 0.12
18,"Transcriptional activator Myb A180T, P10242",-0.174 ± 0.078
19,"Transcriptional activator Myb Q195H, P10242",-0.269 ± 0.16
20,"Transcriptional activator Myb G197K, P10242",-0.124 ± 0.12
21,"Transcriptional activator Myb I154L, P10242",-0.187 ± 0.055
22,"Transcriptional activator Myb E168T, P10242",-0.573 ± 0.32

row,Substance,abundance fitness
1,"Transcriptional activator Myb T148L, P10242",-0.505 ± 0.036
2,"Transcriptional activator Myb S187D, P10242",0.077 ± 0.12
3,"Transcriptional activator Myb T177S, P10242",-0.003 ± 0.066
4,"Transcriptional activator Myb L173P, P10242",-0.656 ± 0.23
5,"Transcriptional activator Myb T177Q, P10242",-0.183 ± 0.084
6,"Transcriptional activator Myb K182Y, P10242",-0.253 ± 0.17
7,"Transcriptional activator Myb K171G, P10242",-0.336 ± 0.061
8,"Transcriptional activator Myb V193N, P10242",-0.032 ± 0.26
9,"Transcriptional activator Myb S146P, P10242",-0.108 ± 0.26
10,"Transcriptional activator Myb E149W, P10242",-0.719 ± 0.47
11,"Transcriptional activator Myb Q195V, P10242",0.043 ± 0.081
12,"Transcriptional activator Myb D152S, P10242",-0.287 ± 0.072
13,"Transcriptional activator Myb P174G, P10242",-0.462 ± 0.056
14,"Transcriptional activator Myb N183R, P10242",-0.153 ± 0.051
15,"Transcriptional activator Myb K192T, P10242",-0.232 ± 0.13
16,"Transcriptional activator Myb G175L, P10242",-0.102 ± 0.077
17,"Transcriptional activator Myb K143Q, P10242",-0.961 ± 0.36
18,"Transcriptional activator Myb L199V, P10242",0.032 ± 0.065
19,"Transcriptional activator Myb R191D, P10242",0.117 ± 0.12
20,"Transcriptional activator Myb L173V, P10242",-0.127 ± 0.093
21,"Transcriptional activator Myb M189C, P10242",-0.311 ± 0.095
22,"Transcriptional activator Myb L199A, P10242",-0.05 ± 0.062

row,Substance,abundance fitness
1,"Transcriptional activator Myb G197R, P10242",-0.087 ± 0.06
2,"Transcriptional activator Myb G163S, P10242",-0.406 ± 0.078
3,"Transcriptional activator Myb A180L, P10242",-0.111 ± 0.073
4,"Transcriptional activator Myb V193L, P10242",-0.089 ± 0.089
5,"Transcriptional activator Myb N186A, P10242",-0.081 ± 0.07
6,"Transcriptional activator Myb S202Q, P10242",-0.102 ± 0.16
7,"Transcriptional activator Myb L173C, P10242",0.012 ± 0.12
8,"Transcriptional activator Myb L172K, P10242",-0.108 ± 0.1
9,"Transcriptional activator Myb T177C, P10242",-0.138 ± 0.075
10,"Transcriptional activator Myb R153N, P10242",0.02 ± 0.13
11,"Transcriptional activator Myb K192F, P10242",-0.301 ± 0.29
12,"Transcriptional activator Myb A180K, P10242",-0.266 ± 0.082
13,"Transcriptional activator Myb L172Q, P10242",-0.117 ± 0.1
14,"Transcriptional activator Myb R153V, P10242",-0.199 ± 0.084
15,"Transcriptional activator Myb Q195G, P10242",-0.074 ± 0.074
16,"Transcriptional activator Myb D152A, P10242",-0.24 ± 0.066
17,"Transcriptional activator Myb G197S, P10242",0.01 ± 0.071
18,"Transcriptional activator Myb Y198H, P10242",-0.145 ± 0.2
19,"Transcriptional activator Myb R191T, P10242",0.022 ± 0.14
20,"Transcriptional activator Myb G175D, P10242",0.021 ± 0.079
